The record followed here is publication PMC10504565.

The assay concerns the target endogenous POLR2A/RPB1, the largest subunit of RNA pol II, of HepG2 cells (human (endogenous in HepG2)) (UniProt P24928). Briefly: proximity ligation; fixed HepG2 cells (SHP-1 WT; SHP-1 KO as negative control), anti-SHP-1 and anti-RPB1 antibodies, Duolink In Situ kit; nuclear dots counted in at least 400 nuclei.

endogenous SHP-1 of HepG2 cells, P29350 1-595 (natural protein; other documents disagree on this pair), sequence (P29350 whole entry): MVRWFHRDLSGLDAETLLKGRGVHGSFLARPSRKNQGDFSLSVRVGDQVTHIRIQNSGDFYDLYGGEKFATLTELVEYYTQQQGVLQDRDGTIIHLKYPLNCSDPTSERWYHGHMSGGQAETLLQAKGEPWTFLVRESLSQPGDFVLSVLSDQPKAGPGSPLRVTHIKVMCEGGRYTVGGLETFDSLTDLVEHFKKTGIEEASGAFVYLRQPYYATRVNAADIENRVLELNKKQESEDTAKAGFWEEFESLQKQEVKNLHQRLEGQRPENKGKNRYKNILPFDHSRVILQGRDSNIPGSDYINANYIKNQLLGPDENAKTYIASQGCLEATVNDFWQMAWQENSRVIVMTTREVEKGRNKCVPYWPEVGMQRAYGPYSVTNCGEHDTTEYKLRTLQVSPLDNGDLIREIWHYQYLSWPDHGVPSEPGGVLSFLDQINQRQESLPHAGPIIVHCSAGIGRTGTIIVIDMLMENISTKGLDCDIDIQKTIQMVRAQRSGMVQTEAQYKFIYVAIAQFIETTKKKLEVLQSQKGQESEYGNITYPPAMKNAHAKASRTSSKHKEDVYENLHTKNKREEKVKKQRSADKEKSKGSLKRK

On to “endogenous SHP-1 of HepG2 cells, P29350 1-595 (natural protein; other documents disagree on this pair)”, for which the percent of nuclei with PLA dots is 44 % of nuclei.
